In this assay the target is T1, Human CD53-CHO (full-length human CD53 over-expressed on CHO-K1 cells) (human, UniProt P19397 1-219).
T1 construct: Tetraspanin cell-surface antigen
T1 sequence: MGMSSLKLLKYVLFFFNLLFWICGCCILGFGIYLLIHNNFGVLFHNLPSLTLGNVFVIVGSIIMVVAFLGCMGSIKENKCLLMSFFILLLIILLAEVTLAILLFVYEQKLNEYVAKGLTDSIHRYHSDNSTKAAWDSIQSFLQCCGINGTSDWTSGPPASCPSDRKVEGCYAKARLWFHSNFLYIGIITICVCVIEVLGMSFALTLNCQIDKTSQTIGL
The assay is described as follows: flow cytometry on CD53-CHO cells, anti-mouse IgG AF647 gMFI, 4-parameter fit. As to the method: Binding of anti-human CD53 antibodies was determined by flow cytometry for their ability to bind human CD53-CHO cells compared to parental CHO-K1 cells. All assay steps were performed in FACS buffer (phosphate buffered saline pH 7.4 supplemented with 2% fetal bovine serum). Twenty thousand cells were seeded in 384-well plates and washed twice with ice cold buffer. Cells were incubated with purified antibodies titrated 3-fold from 200 nM to 0.09 nM at 4° C. for 1 hour with gentle agitation, then washed twice with FACS buffer and incubated with anti-mouse IgG Alexa Fluor® 647 and incubated at 4° C. for 40 minutes. Cells were washed twice and resuspended in FACS buffer. Analysis was preformed on the IntelliCyt® iQue Screener and gMFI values for Alexa Fluor® 647 were generated. EC50 values were determined in GraphPad Prism8. Concentration was transformed from nM to Log 10 nM and curves were fit with a nonlinear regression of log(agonist) vs. response−Variable slope (four parameters) or Y=Bottom+(Top−Bottom)/(1+10\hat{ }((LogEC50−X)*HillSlope)). EC50 values for all anti-human CD53 antibodies can be found in Table 6, and representative binding curves can be found in FIG. 7. Binding to CD53-CHO is represented by closed symbols and binding to parental CHO-K1 cells is represented by open symbols.

B1: 10J06 (antibody, V domains shown)
VH: QVQLQQPGAELVKPGASVKLSCKASGYTFTSYWMHWVKQRPGQGLEWIGMIHPNSGSSNHNGKFRGKATLTVDKSSSTAYIQLSSLTSEDSAVYYCARDDYAETMDYWGQGTSVTVSS
VL: DVVMTQTPLSLSITIGQPASISCKSSQSLLYSDGKTYLNWFQQRPGQSPKRLMYQVSKLDPGIPDRFSGSGSETDFTLKISRVEAEDLGVYYCLQGTYYPWTFGGGTKLEIK
notes: Murine anti-human CD53 mAb purified from subcloned hybridoma; detected with anti-mouse IgG
Turning to B1, the EC50 – broadly, the midpoint of the concentration-response curve – amounted to 82.5 nM. That is a double-digit nanomolar value.

B2: 9J08 (antibody, V domains shown)
VH: QVQLQQPGAELVKPGASVKLSCKASGYTFTSCWMHWVKQRPGQGLEWIGMIHPNGYSSNYNGKFKNKATLTIDNSSGTAYMQLSGLTSEDSAVYYCARDDYAETMDYWGQGTSVTVSS
VL: DVVMTQTPLSLSVTIGQPASISCKSSQSLLYSDGKTYLNWLQQRPGQSPKRLMYQVSKLDPGIPDRFSGSGSETDFTLRISRVEAEDLGVYYCLQGTYYPWTFGGGTKLEIK
notes: as for B1
With B2, the EC50 was 2.7 nM.

B3: 6J17 (antibody, V domains shown)
VH: EVQLQQSGAELVRPGASVKLSCTASGFNIKDDYMHWVRQRPKQGLEWIGRVDPANGNTKYAPKFQDKATMTADTSSNTAYLRLSSLTSEDTAVYYCAGYFYYSHDGGFACWGQGTLVTVSA
VL: DIVMTQGSPSIPVTPGESVSISCRSSKSLLHRNGNIYLYWFLQRPGQSPQRLIYYMSNLASGVPDRFSGRGSGTDFTLRISRVEAEDVGVYYCMQGLEYPFTFGTGTKLEIK
notes: as for B1
B3 registered an EC50 of roughly 23 nM.

B4: 4B19 (antibody, V domains shown)
VH: QVQLQQSGTELMKPGASVKLSCKATGYTFTGYWIEWVKQRPGHGLEWIGEILPGSYSTNYNEKFKGKATFTADSSSNTAYMQLSSLTTEDSAIYYCTRDSNYEWFDVWGTGTTVTVSS
VL: DVVMTQTPLSLSVTIGQPASISCKSSQSLLHRDGETYLNWLLQRPGQSPKLLIYLVSKLESGIPDRFSGSGSGTDFTLKISRVEVEDLGVYYCLQHTHFPYTFGSGTKLEIK
notes: as for B1
For the molecule B4, the EC50 came out at 36 nM.

B5: 4N19 (antibody, V domains shown)
VH: EVQLQQSVAELVRPGASVKLSCTASGFSIKNTYMHWVKQRPEQGLEWIGRIDPANGYTQHAPKFQGKATIITDTSSNTAYLQLSSLTSEDTAIYYCAGGGPYYAMDYWGQGTSVTVSS
VL: DIVMTQAAPSVPVTPGESVSISCRSSKSLLHSNGDTYLYWFLQRPGQSPQLLIYRMSNLASGVPDRFSGSGSGTAFTLRISRVEAEDVGVYYCMQHLEYPFTFGAGTKLELK
notes: as for B1
B5 showed an EC50 of 2.5 nM. This EC50 lies about 14-fold lower than the previous one.

B6: 10H16 (antibody, V domains shown)
VH: EVQLQQSGAELVRPGASVKLSCTVSGFNIKDDFMNWVRQRPEQGLEWIGRIDPENGNTKYAPKFQDKATITADTSSNTAHLHLSSLTSEDTAVYFCARWIPPYWGQGTLVTVSA
VL: DIVMTQAAPSVHVTPGESASISCRSSKSLLHSNGDTYLYWFLQRPGQSPQLLIYRMSNLASGAPDRFSGSGSGTAFTLRISRVEAEDVGVYYCMQLLEYPYTFGGGTKLEIK
notes: as for B1
Turning to B6, the EC50 is roughly 8 nM.

B7: 5M13 (antibody, V domains shown)
VH: EVQLQQSVAELVRPGASVKLSCTASGFNIKNTYMHWVKQRPEQGLEWIGRLDPANGYTQSAPKFQGKATVTADTSSNTAYLHLSSLTSEDTAIYYCLYGNYYYAMAYWGQGTSVTVSS
VL: DVVMTQAAPSIPVTPGESVSISCRSSKSLLHSNGDTYLYWFLQRPGQSPQLLIYRMSNLASGVPDRFSGSGSGTAFTLRISRVEAEDVGVYYCMQHLEYPYTFGGGTKLEIK
notes: as for B1
B7 had a 50% effective concentration (EC50) of 11.1 nM.

B8: 5K03 (antibody, V domains shown)
VH: EVQLQQSVAELVRPGASVKLSCTTSGFNIKNTYMHWVKQRPEQGLEWIGRIDPANGYTECAPKFQGKATITADTSSNTAYLQLSSLTSEDTAIYYCTRSGEDYAMDYWGQGTSVTVSS
VL: DIVMTQAAPSVPVIPGESVSISCRSRKSLLHRNGDTYLYWFLQRPGQSPQVLIYRMSNLASGVPDRFSGSGSGTAFTLRISRVEAEDVGVYYCMQHLEYPYTFGGGTKLEIK
notes: as for B1
With B8, the EC50 is roughly 2 nM.

B9: 5F16 (antibody, V domains shown)
VH: EVQLQQSGAELVRPGASVKLSCTASGFNIEDDYVHWVKQRPEQGLEWIGRIDPANGNIKYAPKFQDKATITADTSSNIAYLQLSSLTAEDTAVYYCARSGTGAMDYWGQGTSVTVSS
VL: DIVMTQAAPSVPVTPGESVSISCRSSKSLLHSNGDTYFYWFLQRPGQSPQLLIYRMSNLASGVPDRFSGSGSGTAFTLRISRVEAEDVGVYYCMQHLEFPLTFGVGTKLELK
notes: as for B1
In turn, B9 returned an EC50 of roughly 3 nM.

B10: 6M01 (antibody, V domains shown)
VH: EVLLQQSVADLVRPGASVKLSCTASGFNIKNTYMHWVSQRPEQGLEWIGRIDPANGYTQCAPSFQGKATITADTSSNTAYLHLSSLSSEDPAIYYCAGGSYYSAMDYWGQGTSVTVSS
VL: DIVMTQAAPSLPVTPGESVSISCRSSKSLLHSNGDTYLYWFLQRPGQSPQLLIYRMSNLASGVPDRFSGSGSGTAFTLRISRVEAEDVGVYYCMQHLEYPFTFGSGTKLEIK
notes: as for B1
As to B10, the EC50 was roughly 2 nM.

B11: 6K14 (antibody, V domains shown)
VH: EVQLQQSGADLVRPGASVKLSCTASGFNIKDDYIHWVKQRPVQGLEWIGRIDPANGNTKYAPMFRGKATITADTSSNTAYLQLSSLTSEDTAVYYCARSGTGAMDYWGQGTSVTVSS
VL: DIVMTQAAPSVFVTPGESVSISCRSSKSLLHSNGDTYFYWFLQRPGQSPQLLIYRMSNLASGVPDRFSGSGSTTAFTLRISRVEAEDVGVYYCMQHLEFPLTFGAGTKLELK
notes: as for B1
In turn, B11 came in with a concentration for a half-maximal effect (EC50) of roughly 3 nM.

B12: 10F09 (antibody, V domains shown)
VH: EVQLQQSVAELVRPGASVKLSCTASGFNIKNTYMHWVKQRPAQGLEWIGKIDPANGFTKHAPRFQGKATITSDTSSNTAYLQLSSLTSEDTAIYYCASGWDAAFAYWGQGTLVTVSA
VL: DIVMTQAAPSVPVTPGESVSISCRSSKSLLHSNGDTYLYWFLQRPGQSPQLLIYRMSKLASGVPDRFSGSGSGTAFTLRISRVEAEDVGVYYCMQHLEHPLTFGAGTKLELK
notes: as for B1
Regarding B12, the EC50 turned out to be 25.4 nM.

B13: 2M22 (antibody, V domains shown)
VH: EGQLQQSGSELVRPGASVKLSCTASGFNIKDDYVHWVKKRPEQGLEWIGRIDPANGYSHYVPKFHDKATITADTSSNTAYLQLNSLTSDDTAVYYCASGSGSYAMDYWGQGTSVTVSS
VL: EIVMTQAAPSVPVTPGESVSISCRSSKSLLHSNGDTYLYWFLQRPGQSPQLLIYRMSNVASGVPDRFSGSGSGTAFTLRISRVETEDVGVYYCMQHLESPYTFGGGTKLEIK
notes: as for B1
B13 came in with an EC50 of roughly 0.3 nM.

B14: 1L17 (antibody, V domains shown)
VH: EVQLQQSVAELVRPGASVKLSCTASGFNIKNTYMHWVKQRPEQGLEWIARIDPANGYSQYAPKFQGKATITADTSSNTAYLQLSSLTSEDTAIFYCAGGSTYSAMDYWGQGTSVTVSS
VL: DIVMTQAAPSVPVTPGESVSISCRSSKSLLHSNGDTYLYWFLQRPGQSPQLLIYRMSNLASGVPDRFSGSGSGTAFTLRISRVEAEDVGVYYCMQHLEYPFTFGGGTKLEIK
notes: as for B1
B14 gave an EC50 of roughly 2 nM.

B15: 4O24 (antibody, V domains shown)
VH: EVQLQQSVAELVRPGASVKLSCTASAFNIKNTYMHWVKQRPAQGLEWIGKIDPANGYTKYAPRFQDKATITADTSSNTAYLQLSSLTSEDTAIYYCASGRDAAFAYWGQGTQVTVSA
VL: DIVMTQAAPSVPVTPGESVSISCRSSKSLLHSNGDTYLYWFLQRPGQSPQLLIYRMSNLASGVPDRFSGSGSGTAFTLRISRVEAEDVGVYYCMQHLEHPLTFGAGTKLELK
notes: as for B1
With B15, it took 8.1 nM to reach a half-maximal effect (EC50).

B16: 10N22 (antibody, V domains shown)
VH: EVQLQQSGPELVKPGASVKISCKASGYTFTGYFMNWVKQSHGKSLEWIGDLNPNNGGTNFNQRFKGKATLTVDKSSSTAYMELRSLTSEDSAVYYCARDGYDGGYAMDYWGQGTSVTVSS
VL: DVLMTQTPLSLPVSLGDQASISCRSSQNIVHSSGNTYLEWYLQKPGQSPKLLIFKVSNRFSGVPDRFSGSGSGTDFTLKISRVEAEDLGVYYCFQGSHVPYTFGGGTKLEIK
notes: as for B1
Consider B16, for which the EC50 was roughly 8 nM.

B17: 3A21 (antibody, V domains shown)
VH: EVQLQQSGAELVRPGASVKLSCTASGFNIKDDYMHWVKQRPEQGLEWIGLIDPENGYAEYASKFQGKATITADTSSNTANLQLNSLTSEDTAVYYCTTWGLLRNYVMDYWGQGTSVTVSS
VL: DIVMTQAAFSNPVTLGTSASISCSSSKSLLHSNGITYLYWYLQRPGQSPQLLIYRMSNLASGVPDRFSGSGSGTDFTLRVNRVEADDVGVYYCAQMLERPRTFGGGTKLEIK
notes: as for B1
Take B17: the concentration for a half-maximal effect (EC50) was 2.1 nM.

B18: 10B08 (antibody, V domains shown)
VH: QLQQSGTELVRPGASVKLSCTSSGFNIKDDFMHWVKQRPEQGLEWIGWIDPENGATAYASKFQGKATITADTSSNTAYLQLSSLTSEDTAVYYCTTFGDYYGGRKDYWGQGTTLTVSS
VL: DIVMTQAAFSNPVTLGTSASISCSSSKSLLHSNGITYLYWYLQRPGQSPQLLIYRMSNLASGVPDRFSGSGSGTDFTLGISRVEAEDVGVYYCAQMLERPRTFGGGTKLEIK
notes: as for B1
Regarding B18, a half-maximal response (EC50) required 3.1 nM.

B19: 9E17 (antibody, V domains shown)
VH: QLQQSGAEFVRPGASVKLSCTASGFNIKDDYIHWVKQRPEQGLEWIGRIDPANGYTEYAPKFQGKATITSDTSSNTAYLQLSSLTSEDTAVFYCVWHWDYWGQGTTLTVSS
VL: DIVMTQAAFSNPVTLGTSASISCSSYKSLQHNNGITYLYWFLQRPGQSPHLLIYRMSNLASGVPDRFSGSGSGTDFTLRISRVEAEDVGVYYCAQMLERPFTFGTGTKLEIK
notes: as for B1
For the molecule B19, a half-maximal effect (EC50) was put at 2.1 nM.

These data come from patent publication US20220251233A1 (VERSEAU THERAPEUTICS, published 2022).
